Changes are numbered by the printed parent chain. Names may count otherwise.
B1: His6-tagged recombinant NOD1 CARD (residues 15-110), wild type (domain or fragment, human, UniProt Q9Y239-1 15-110, looked up)
chain: ESHPHIQLLKSNRELLVTHIRNTQCLVDNLLKNDYFSAEDAEIVCACPTQPDKVRKILDLVQSKGEEVSEFFLYLLQQLADAYVDLRPWLLEIGFS
notes: NOD1 CARD domain, human, residues 15-110; the dimer is stabilised by an interprotomer disulfide bond through Cys-39 (from the cited crystal structures); also called wild-type NOD1 CARD; wild-type NOD1
B2: His6-tagged recombinant NOD1 CARD (residues 15-110) A55V (domain or fragment, human, UniProt Q9Y239-1 15-110, looked up)
chain: B1 chain with A41V
notes: NOD1 CARD domain, human, residues 15-110, A55V (a polymorphism)
B3: His6-tagged recombinant NOD1 CARD (residues 15-110) E56K (domain or fragment, human, UniProt Q9Y239-1 15-110, looked up)
chain: B1 chain with E42K
notes: NOD1 CARD domain, human, residues 15-110, E56K
B4: His6-tagged recombinant NOD1 CARD (residues 15-110) D48K (domain or fragment, human, UniProt Q9Y239-1 15-110, looked up)
chain: B1 chain with D34K
notes: NOD1 CARD domain, human, residues 15-110, D48K
B5: His6-tagged recombinant NOD1 CARD (residues 15-110) E53K (domain or fragment, human, UniProt Q9Y239-1 15-110, looked up)
chain: B1 chain with E39K
notes: NOD1 CARD domain, human, residues 15-110, E53K
B6: His6-tagged recombinant NOD1 CARD (residues 15-110) N43S (domain or fragment, human, UniProt Q9Y239-1 15-110, looked up)
chain: B1 chain with N29S
notes: NOD1 CARD domain, human, residues 15-110, N43S (a rare polymorphism)

Molecular target: the molecule itself
Test: SEC; Superdex 75 HiLoad 16/60, 25 mM sodium phosphate, 100 mM NaCl, no reducing agent; monomer and dimer

Stoichiometry N, 2:
B1, B2, B3, B4, B5, B6
